# Reference: IntAct's records for PubMed 32851177
# B1: Osteopetrosis-associated transmembrane protein 1 (Homo sapiens), Q86WC4 (parent)
# chain: MEPGPTAAQRRCSLPPWLPLGLLLWSGLALGALPFGSSPHRVFHDLLSEQQLLEVEDLSLSLLQGGGLGPLSLPPDLPDLDPECRELLLDFANSSAELTGCLVRSARPVRLCQTCYPLFQQVVSKMDNISRAAGNTSESQSCARSLLMADRMQIVVILSEFFNTTWQEANCANCLTNNSEELSNSTVYFLNLFNHTLTCFEHNLQGNAHSLLQTKNYSEVCKNCREAYKTLSSLYSEMQKMNELENKAEPGTHLCIDVEDAMNITRKLWSRTFNCSVPCSDTVPVIAVSVFILFLPVVFYLSSFLHSEQKKRKLILPKRLKSSTSFANIQENSN
# partner: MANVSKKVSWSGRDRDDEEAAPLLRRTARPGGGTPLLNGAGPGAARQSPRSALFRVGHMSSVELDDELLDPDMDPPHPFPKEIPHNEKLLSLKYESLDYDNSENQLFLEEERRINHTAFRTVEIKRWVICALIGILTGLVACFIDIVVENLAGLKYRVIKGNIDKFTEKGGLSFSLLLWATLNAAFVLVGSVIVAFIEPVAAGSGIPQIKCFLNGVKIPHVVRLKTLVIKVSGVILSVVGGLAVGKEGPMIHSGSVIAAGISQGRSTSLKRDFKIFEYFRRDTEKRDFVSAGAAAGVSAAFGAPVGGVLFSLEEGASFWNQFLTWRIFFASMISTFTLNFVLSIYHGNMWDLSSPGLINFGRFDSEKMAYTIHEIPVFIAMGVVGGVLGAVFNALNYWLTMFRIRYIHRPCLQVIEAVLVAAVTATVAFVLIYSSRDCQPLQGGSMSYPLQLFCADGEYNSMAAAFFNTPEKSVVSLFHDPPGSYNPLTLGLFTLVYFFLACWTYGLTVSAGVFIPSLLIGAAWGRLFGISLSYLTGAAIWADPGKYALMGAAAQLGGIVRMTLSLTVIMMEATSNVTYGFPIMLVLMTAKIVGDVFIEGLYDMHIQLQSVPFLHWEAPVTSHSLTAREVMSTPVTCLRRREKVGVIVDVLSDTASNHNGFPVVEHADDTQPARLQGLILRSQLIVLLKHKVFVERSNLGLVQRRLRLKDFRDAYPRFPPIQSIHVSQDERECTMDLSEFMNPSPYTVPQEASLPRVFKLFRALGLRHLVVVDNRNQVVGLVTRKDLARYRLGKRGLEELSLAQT
# Variants of: B1
# Conditions: with clcn7_human CLCN7, P51798
row,Variant,effect of a mutation on the interaction
1,Y300A,decreasing interaction strength
